Our source for the share of Rubisco in the pelleted condensate that contained C. reinhardtii SSU (Coomassie-stained gel), share of Rubisco localized to the condensate (immunogold TEM, polyclonal Rubisco antibody) and share of the C. reinhardtii SSU localized to the condensate (immunogold TEM, anti-CrRbcS2) values is patent US20220282268A1.

The test addresses Hybrid Rubisco of A. thaliana S2Cr lines (1a3b mutant complemented with S2Cr) (Arabidopsis thaliana; Chlamydomonas reinhardtii) (UniProt O03042). Description: cell-based or functional assay.

Regarding “EPYC1-dGFP (truncated mature EPYC1 expressed from two cassettes as EPYC1::eGFP and EPYC1::tGFP)”, the share of Rubisco in the pelleted condensate that contained C. reinhardtii SSU (Coomassie-stained gel) was found to be 82%; the share of Rubisco localized to the condensate (immunogold TEM, polyclonal Rubisco antibody) came to 54%; the share of the C. reinhardtii SSU localized to the condensate (immunogold TEM, anti-CrRbcS2) turned out to be 81%.
